Laboratory results taken from patent US20230203203A1 (YISSUM RESEARCH DEVELOPMENT COMPANY OF THE HEBREW …, published 2023).
Square brackets hold non-standard residues; d marks the D form. Ends that are not written are not given here. AEEA = NCCOCCOCC(=O)O

T1: murine CD177 (mouse, UniProt Q8R2S8 22-817)
T1 construct: whole, on cells; On murine neutrophils (HDN, TAN, circulating), on HEK293T cells ectopically expressing it, and from neutrophil lysate in the pull-down; also called mouse CD177; CD177 (on murine neutrophils)
T1 sequence (looked up): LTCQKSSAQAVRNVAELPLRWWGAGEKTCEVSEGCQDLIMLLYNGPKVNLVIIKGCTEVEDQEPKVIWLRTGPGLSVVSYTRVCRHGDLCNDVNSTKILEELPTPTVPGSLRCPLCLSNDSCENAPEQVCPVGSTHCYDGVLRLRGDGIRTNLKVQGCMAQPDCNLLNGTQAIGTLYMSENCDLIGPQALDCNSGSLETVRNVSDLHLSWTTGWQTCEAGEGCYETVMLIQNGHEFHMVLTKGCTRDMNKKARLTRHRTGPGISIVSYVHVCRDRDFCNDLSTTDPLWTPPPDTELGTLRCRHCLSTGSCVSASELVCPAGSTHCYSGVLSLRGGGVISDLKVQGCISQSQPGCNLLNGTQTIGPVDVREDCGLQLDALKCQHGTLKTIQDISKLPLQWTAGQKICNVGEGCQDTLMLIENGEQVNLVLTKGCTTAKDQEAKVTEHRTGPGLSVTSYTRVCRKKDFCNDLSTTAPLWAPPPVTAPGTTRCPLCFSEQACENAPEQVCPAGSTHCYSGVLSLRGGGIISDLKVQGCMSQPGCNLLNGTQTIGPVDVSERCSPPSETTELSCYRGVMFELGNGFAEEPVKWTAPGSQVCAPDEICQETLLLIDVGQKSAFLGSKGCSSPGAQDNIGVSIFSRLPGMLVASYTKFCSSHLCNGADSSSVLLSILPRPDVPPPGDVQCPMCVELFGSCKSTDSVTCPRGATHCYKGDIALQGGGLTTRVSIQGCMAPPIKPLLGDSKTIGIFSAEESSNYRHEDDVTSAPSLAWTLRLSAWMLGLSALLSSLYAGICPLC

T2: human CD177 (human, UniProt Q8N6Q3 22-408)
T2 construct: whole, on cells; On circulating human neutrophils of donors and patients; also called CD177 (on human neutrophils)
T2 sequence (looked up): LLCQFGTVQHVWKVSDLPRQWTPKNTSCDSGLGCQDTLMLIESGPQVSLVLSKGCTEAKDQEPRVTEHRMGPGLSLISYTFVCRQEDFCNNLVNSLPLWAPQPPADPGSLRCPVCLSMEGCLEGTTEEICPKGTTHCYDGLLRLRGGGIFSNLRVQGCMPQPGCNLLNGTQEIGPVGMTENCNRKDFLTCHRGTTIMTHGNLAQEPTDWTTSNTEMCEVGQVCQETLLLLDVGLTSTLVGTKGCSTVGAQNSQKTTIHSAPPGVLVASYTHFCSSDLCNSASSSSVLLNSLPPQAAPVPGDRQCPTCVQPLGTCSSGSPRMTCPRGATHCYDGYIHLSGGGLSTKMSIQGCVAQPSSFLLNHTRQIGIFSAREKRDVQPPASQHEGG


Legend:
murine CD177 [1] = biological target: T1, murine CD177; assay: flow cytometry on WBC of 4T1 tumor bearing mice, anti-M13-PE; target named as neutrophils
human CD177 [2] = biological target: T2, human CD177; assay: flow cytometry on WBCs of healthy volunteers, anti-M13-PE (FIG. 13I)
Description: In order to assess the binding efficiency of each peptide to human circulating neutrophils, and the level of variability between individuals, the individual binding of each peptide to 5-8 healthy volunteers was assessed. Blood withdrawn from healthy volunteers was overlaid on 3% dextran in 0.9% NaCl in a 1:1 ratio and left at RT for 25 min to allow erythrocyte sedimentation. Residual RBCs were lysed by adding water for 30 sec and stopped by adding PBS×5 supplemented with 2.5% BSA. Following red blood cell lysis, 0.5×10⁶ WBCs were incubated with each phage separately. The level of binding of the different phages to the neutrophils was then assessed by flow cytometry. Neutrophils were identified based on a CD66b⁺ SSC^high gating, and the level of phage binding was assessed using PE-conjugated anti-M13 antibody for specific phage staining.

human CD177 [3] = biological target: T2, human CD177; assay: negative control on WBCs of a lung cancer patient, flow cytometry
murine CD177 [4] = biological target: T1, murine CD177; assay: titration on purified murine HDNs, flow cytometry; target named as neutrophils
murine CD177 [5] = biological target: T1, murine CD177; assay: pull-down from murine neutrophil lysate with biotinylated LQI-tetramer on streptavidin-agarose beads, mass spectrometry
Description: After washing, the bound proteins were eluted by incubating the beads for 10 min at 95° C. in protein sample buffer containing beta-mercaptoethanol. The gel was stained using silver staining. Lanes of the eluates of peptide- and control-beads were cut out and analyzed by mass spectrometry.

Binder	percent of circulating neutrophils bound, average of donors (human CD177 [2]) [%]	also measured
LQIQSWSSSP (peptide, part only; not given: phage coat protein VIII, part only) [phage presenting the … (SEQ ID NO: 9) peptide on coat protein VIII]	–	percent of neutrophils bound (murine CD177 [1]): 95%
SSLMTTQLIATSI (peptide, not shown: large carriers) [phage presenting peptide 14 (SSL)]	60	–
KFPDLDSRRLPHMSL (other, detected with PE-conjugated anti-M13 antibody; not shown: phage coat protein pVIII flanking the inserted peptide) [phage presenting peptide 1.1 (KFP)]	~60	–
LATTHMVFSPDH (other, not shown: phage coat protein pVIII flanking the inserted peptide) [phage presenting peptide 27 (LAT)]	~60	–
PSSNLESTPLSLL (other, not shown: phage coat protein pVIII flanking the inserted peptide) [phage presenting peptide 4 (PSS)]	~60	–
PELDSKPYFPPL (other, not shown: phage coat protein pVIII flanking the inserted peptide) [phage presenting peptide PEL]	~60	–
ELVTASMPRPNN (other, not shown: phage coat protein pVIII flanking the inserted peptide) [phage presenting peptide ELV]	~60	–
SLESSPMAQLPQ (other, not shown: phage coat protein pVIII flanking the inserted peptide) [phage presenting peptide SLE]	~60	–
SELRSTPLLVPS (other, not shown: phage coat protein pVIII flanking the inserted peptide) [phage presenting peptide SEL]	~60	–
LQIQSWSSSP[AEEA][AEEA]C (also: tetramer: four chains joined via Cys-Mpa to branched Lys core, Branched tetramer, MW 7.6 kDa; Detected with SA-Cy3 after washing ('tetramer alone' assay); also called tetrameric LQI; biotinylated LQI-tetramer) [LQI tetramer peptide, (LQIQSWSSSP-Doa-Doa-C)4-(Mpa)4-Lys2-Lys-beta-Ala-Lys(Biotin)-beta-Ala-OH]	–	binding result (human CD177 [3]): no binding; Kd (murine CD177 [4]): 3.3 µM; peptide/control ratio (murine CD177 [5]): 7.89
